Assay results as given in the supplement of paper PMC9876800.

Test system: peptide library, one residue held at a place counted from the S/T acceptor
Experiment: relative phosphorylation of the sub-library (ratio to the mean residue at this position); human; higher = residue favoured
Procedure, shortened: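 In 384-well plates, purified recombinant kinases (human or orthologue constructs) were incubated for 90 min under kinase-specific conditions with 50 μM biotinylated degenerate peptide sub-libraries and 50 μM ATP spiked with γ-32P-ATP. Each sub-library fixed a single residue at one position around a central Ser/Thr. Relative sub-library phosphorylation, measured by phosphorimaging and densitometry of streptavidin membrane spots, is given as a ratio to the mean residue at that position.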

Sequence of TSSK1B, construct: Full length (Q9BXA7 whole entry, looked up): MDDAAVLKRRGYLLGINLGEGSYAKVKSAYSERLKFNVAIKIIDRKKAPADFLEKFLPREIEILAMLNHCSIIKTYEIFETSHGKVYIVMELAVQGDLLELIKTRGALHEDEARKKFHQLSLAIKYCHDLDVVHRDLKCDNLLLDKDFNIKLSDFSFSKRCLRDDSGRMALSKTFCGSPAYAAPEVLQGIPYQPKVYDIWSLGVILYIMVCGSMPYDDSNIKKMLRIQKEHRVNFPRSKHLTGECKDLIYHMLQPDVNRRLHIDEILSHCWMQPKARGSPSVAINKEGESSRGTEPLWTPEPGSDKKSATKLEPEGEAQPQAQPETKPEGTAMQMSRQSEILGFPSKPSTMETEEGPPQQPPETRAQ

TSSK1B, construct: Full length (from UniProt Q9BXA7)
relative phosphorylation
Conditions | at +1 | at +2 | at +3 | at +4 | at -1 | at -2 | at -3 | at -4 | at -5
A fixed | 0.896 | 1.04 | 0.82 | 0.786 | 1.15 | 1.84 | 0.918 | 1.21 | 1.05
D fixed | 0.619 | 0.465 | 1.55 | 0.621 | 0.453 | 0.495 | 0.378 | 0.625 | 0.389
E fixed | 0.69 | 0.497 | 0.747 | 0.452 | 0.506 | 0.474 | 0.532 | 0.883 | 0.371
F fixed | 1.1 | 0.97 | 1.09 | 1.33 | 0.617 | 0.565 | 0.497 | 0.643 | 0.99
G fixed | 0.884 | 1.4 | 0.809 | 0.639 | 1.08 | 1.2 | 1.08 | 1.29 | 0.635
H fixed | 1.1 | 1.99 | 1.29 | 0.768 | 0.957 | 0.981 | 1.01 | 1.23 | 0.57
I fixed | 0.854 | 1.56 | 0.66 | 2.06 | 0.502 | 0.661 | 0.421 | 0.677 | 1.61
K fixed | 1.43 | 0.385 | 0.945 | 0.621 | 2.08 | 2.53 | 2.55 | 2.11 | 0.612
L fixed | 1.03 | 1.53 | 0.758 | 2.43 | 0.683 | 0.423 | 0.418 | 0.73 | 2.77
M fixed | 1.23 | 1.21 | 0.953 | 1.9 | 0.885 | 0.681 | 0.607 | 1.12 | 1.14
N fixed | 1.05 | 0.881 | 1.92 | 0.793 | 0.98 | 1.22 | 0.887 | 0.889 | 0.477
P fixed | 0.176 | 0.61 | 0.392 | 0.702 | 1.96 | 0.794 | 1.3 | 0.592 | 1.26
Q fixed | 1.38 | 0.997 | 1.07 | 0.683 | 1.17 | 1.29 | 0.858 | 0.864 | 0.783
R fixed | 1.54 | 0.586 | 0.953 | 0.529 | 1.98 | 1.72 | 3.76 | 1.81 | 1.09
V fixed | 0.935 | 1.07 | 0.632 | 1.34 | 0.59 | 1.11 | 0.545 | 0.797 | 1.76
W fixed | 0.893 | 0.845 | 1.56 | 0.719 | 0.601 | 0.401 | 0.465 | 0.73 | 0.734
Y fixed | 1.19 | 0.96 | 0.851 | 0.62 | 0.817 | 0.623 | 0.772 | 0.805 | 0.767
pThr fixed | 0.709 | 0.515 | 0.365 | 0.424 | 0.191 | 0.303 | 0.574 | 0.596 | 0.457
pTyr fixed | 0.793 | 0.437 | 0.381 | 0.396 | 0.445 | 0.326 | 0.424 | 0.432 | 0.65
